Six molecules from patent publication EP4745153A1, “GLP-1, GIP AND GCG RECEPTOR […] USE THEREOF” (Jiangsu Hengrui Pharmaceuticals Co., Ltd., priority 2023, dated 2025) can be followed below.

The chains are these.
T1: human glucose-dependent insulinotropic polypeptide receptor (human, UniProt P48546 22-466)
T1 sequence (looked up): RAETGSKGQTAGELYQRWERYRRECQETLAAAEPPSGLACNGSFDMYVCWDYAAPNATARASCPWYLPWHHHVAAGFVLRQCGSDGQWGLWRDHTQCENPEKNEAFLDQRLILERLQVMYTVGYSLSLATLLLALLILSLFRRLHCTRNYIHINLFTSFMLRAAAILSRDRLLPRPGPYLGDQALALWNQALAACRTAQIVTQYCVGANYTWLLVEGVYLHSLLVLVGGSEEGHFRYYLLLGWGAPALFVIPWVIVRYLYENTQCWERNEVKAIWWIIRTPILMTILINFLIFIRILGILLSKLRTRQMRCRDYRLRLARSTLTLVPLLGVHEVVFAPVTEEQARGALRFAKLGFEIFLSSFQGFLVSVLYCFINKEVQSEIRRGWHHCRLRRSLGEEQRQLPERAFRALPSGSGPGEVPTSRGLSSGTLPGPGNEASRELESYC

B1: Compound No. 0112 (peptide)
peptide: H[Aib]HGTFTSDYS[αMeK]LLEK([AEEA-AEEA-γGlu-C20 diacid])KAAQEFVEWLLAGGPSSGAPPPS-NH2
modifications: N-terminus assumed
SMILES: CC(C)C[C@H](NC(=O)[C@H](CC(C)C)NC(=O)[C@H](Cc1c[nH]c2ccccc12)NC(=O)[C@H](CCC(=O)O)NC(=O)[C@@H](NC(=O)[C@H](Cc1ccccc1)NC(=O)[C@H](CCC(=O)O)NC(=O)[C@H](CCC(N)=O)NC(=O)[C@H](C)NC(=O)[C@H](C)NC(=O)[C@H](CCCCN)NC(=O)[C@H](CCCCNC(=O)COCCOCCNC(=O)COCCOCCNC(=O)CC[C@H](NC(=O)CCCCCCCCCCCCCCCCCCC(=O)O)C(=O)O)NC(=O)[C@H](CCC(=O)O)NC(=O)[C@H](CC(C)C)NC(=O)[C@H](CC(C)C)NC(=O)[C@](C)(CCCCN)NC(=O)[C@H](CO)NC(=O)[C@H](Cc1ccc(O)cc1)NC(=O)[C@H](CC(=O)O)NC(=O)[C@H](CO)NC(=O)[C@@H](NC(=O)[C@H](Cc1ccccc1)NC(=O)[C@@H](NC(=O)CNC(=O)[C@H](Cc1c[nH]cn1)NC(=O)C(C)(C)NC(=O)[C@@H](N)Cc1c[nH]cn1)[C@@H](C)O)[C@@H](C)O)C(C)C)C(=O)N[C@@H](C)C(=O)NCC(=O)NCC(=O)N1CCC[C@H]1C(=O)N[C@@H](CO)C(=O)N[C@@H](CO)C(=O)NCC(=O)N[C@@H](C)C(=O)N1CCC[C@H]1C(=O)N1CCC[C@H]1C(=O)N1CCC[C@H]1C(=O)N[C@@H](CO)C(N)=O
B2: Compound No. 0120 (peptide)
peptide: H[Aib]HGTFTSDYSILLEK([AEEA-AEEA-γGlu-C20 diacid])KAAQEFVEWLLAGGPSSGAPPPS-NH2
modifications: N-terminus assumed
SMILES: CC[C@H](C)[C@H](NC(=O)[C@H](CO)NC(=O)[C@H](Cc1ccc(O)cc1)NC(=O)[C@H](CC(=O)O)NC(=O)[C@H](CO)NC(=O)[C@@H](NC(=O)[C@H](Cc1ccccc1)NC(=O)[C@@H](NC(=O)CNC(=O)[C@H](Cc1c[nH]cn1)NC(=O)C(C)(C)NC(=O)[C@@H](N)Cc1c[nH]cn1)[C@@H](C)O)[C@@H](C)O)C(=O)N[C@@H](CC(C)C)C(=O)N[C@@H](CC(C)C)C(=O)N[C@@H](CCC(=O)O)C(=O)N[C@@H](CCCCNC(=O)COCCOCCNC(=O)COCCOCCNC(=O)CC[C@H](NC(=O)CCCCCCCCCCCCCCCCCCC(=O)O)C(=O)O)C(=O)N[C@@H](CCCCN)C(=O)N[C@@H](C)C(=O)N[C@@H](C)C(=O)N[C@@H](CCC(N)=O)C(=O)N[C@@H](CCC(=O)O)C(=O)N[C@@H](Cc1ccccc1)C(=O)N[C@H](C(=O)N[C@@H](CCC(=O)O)C(=O)N[C@@H](Cc1c[nH]c2ccccc12)C(=O)N[C@@H](CC(C)C)C(=O)N[C@@H](CC(C)C)C(=O)N[C@@H](C)C(=O)NCC(=O)NCC(=O)N1CCC[C@H]1C(=O)N[C@@H](CO)C(=O)N[C@@H](CO)C(=O)NCC(=O)N[C@@H](C)C(=O)N1CCC[C@H]1C(=O)N1CCC[C@H]1C(=O)N1CCC[C@H]1C(=O)N[C@@H](CO)C(N)=O)C(C)C
B3: Compound No. 0119 (peptide)
peptide: H[Aib]HGTFTSDYS[αMeK]ILEK([AEEA-AEEA-γGlu-C20 diacid])KAAQEFVEWLLAGGPSSGAPPPS-NH2
modifications: N-terminus assumed
SMILES: CC[C@H](C)[C@H](NC(=O)[C@](C)(CCCCN)NC(=O)[C@H](CO)NC(=O)[C@H](Cc1ccc(O)cc1)NC(=O)[C@H](CC(=O)O)NC(=O)[C@H](CO)NC(=O)[C@@H](NC(=O)[C@H](Cc1ccccc1)NC(=O)[C@@H](NC(=O)CNC(=O)[C@H](Cc1c[nH]cn1)NC(=O)C(C)(C)NC(=O)[C@@H](N)Cc1c[nH]cn1)[C@@H](C)O)[C@@H](C)O)C(=O)N[C@@H](CC(C)C)C(=O)N[C@@H](CCC(=O)O)C(=O)N[C@@H](CCCCNC(=O)COCCOCCNC(=O)COCCOCCNC(=O)CC[C@H](NC(=O)CCCCCCCCCCCCCCCCCCC(=O)O)C(=O)O)C(=O)N[C@@H](CCCCN)C(=O)N[C@@H](C)C(=O)N[C@@H](C)C(=O)N[C@@H](CCC(N)=O)C(=O)N[C@@H](CCC(=O)O)C(=O)N[C@@H](Cc1ccccc1)C(=O)N[C@H](C(=O)N[C@@H](CCC(=O)O)C(=O)N[C@@H](Cc1c[nH]c2ccccc12)C(=O)N[C@@H](CC(C)C)C(=O)N[C@@H](CC(C)C)C(=O)N[C@@H](C)C(=O)NCC(=O)NCC(=O)N1CCC[C@H]1C(=O)N[C@@H](CO)C(=O)N[C@@H](CO)C(=O)NCC(=O)N[C@@H](C)C(=O)N1CCC[C@H]1C(=O)N1CCC[C@H]1C(=O)N1CCC[C@H]1C(=O)N[C@@H](CO)C(N)=O)C(C)C
B4: Compound No. 0154 (peptide)
peptide: H[Aib]QGTFTSDYSILLEK([AEEA-AEEA-γGlu-C20 diacid])KAAQEFVEWLLAGGPSSGAPPPS-NH2
modifications: N-terminus assumed
SMILES: CC[C@H](C)[C@H](NC(=O)[C@H](CO)NC(=O)[C@H](Cc1ccc(O)cc1)NC(=O)[C@H](CC(=O)O)NC(=O)[C@H](CO)NC(=O)[C@@H](NC(=O)[C@H](Cc1ccccc1)NC(=O)[C@@H](NC(=O)CNC(=O)[C@H](CCC(N)=O)NC(=O)C(C)(C)NC(=O)[C@@H](N)Cc1c[nH]cn1)[C@@H](C)O)[C@@H](C)O)C(=O)N[C@@H](CC(C)C)C(=O)N[C@@H](CC(C)C)C(=O)N[C@@H](CCC(=O)O)C(=O)N[C@@H](CCCCNC(=O)COCCOCCNC(=O)COCCOCCNC(=O)CC[C@H](NC(=O)CCCCCCCCCCCCCCCCCCC(=O)O)C(=O)O)C(=O)N[C@@H](CCCCN)C(=O)N[C@@H](C)C(=O)N[C@@H](C)C(=O)N[C@@H](CCC(N)=O)C(=O)N[C@@H](CCC(=O)O)C(=O)N[C@@H](Cc1ccccc1)C(=O)N[C@H](C(=O)N[C@@H](CCC(=O)O)C(=O)N[C@@H](Cc1c[nH]c2ccccc12)C(=O)N[C@@H](CC(C)C)C(=O)N[C@@H](CC(C)C)C(=O)N[C@@H](C)C(=O)NCC(=O)NCC(=O)N1CCC[C@H]1C(=O)N[C@@H](CO)C(=O)N[C@@H](CO)C(=O)NCC(=O)N[C@@H](C)C(=O)N1CCC[C@H]1C(=O)N1CCC[C@H]1C(=O)N1CCC[C@H]1C(=O)N[C@@H](CO)C(N)=O)C(C)C
B5: Compound No. 0155 (peptide)
peptide: H[Aib]QGTFTSDYSI[αMeL]LEK([AEEA-AEEA-γGlu-C20 diacid])KAAQEFVEWLLAGGPSSGAPPPS-NH2
modifications: N-terminus assumed
SMILES: CC[C@H](C)[C@H](NC(=O)[C@H](CO)NC(=O)[C@H](Cc1ccc(O)cc1)NC(=O)[C@H](CC(=O)O)NC(=O)[C@H](CO)NC(=O)[C@@H](NC(=O)[C@H](Cc1ccccc1)NC(=O)[C@@H](NC(=O)CNC(=O)[C@H](CCC(N)=O)NC(=O)C(C)(C)NC(=O)[C@@H](N)Cc1c[nH]cn1)[C@@H](C)O)[C@@H](C)O)C(=O)N[C@@](C)(CC(C)C)C(=O)N[C@@H](CC(C)C)C(=O)N[C@@H](CCC(=O)O)C(=O)N[C@@H](CCCCNC(=O)COCCOCCNC(=O)COCCOCCNC(=O)CC[C@H](NC(=O)CCCCCCCCCCCCCCCCCCC(=O)O)C(=O)O)C(=O)N[C@@H](CCCCN)C(=O)N[C@@H](C)C(=O)N[C@@H](C)C(=O)N[C@@H](CCC(N)=O)C(=O)N[C@@H](CCC(=O)O)C(=O)N[C@@H](Cc1ccccc1)C(=O)N[C@H](C(=O)N[C@@H](CCC(=O)O)C(=O)N[C@@H](Cc1c[nH]c2ccccc12)C(=O)N[C@@H](CC(C)C)C(=O)N[C@@H](CC(C)C)C(=O)N[C@@H](C)C(=O)NCC(=O)NCC(=O)N1CCC[C@H]1C(=O)N[C@@H](CO)C(=O)N[C@@H](CO)C(=O)NCC(=O)N[C@@H](C)C(=O)N1CCC[C@H]1C(=O)N1CCC[C@H]1C(=O)N1CCC[C@H]1C(=O)N[C@@H](CO)C(N)=O)C(C)C

Starred links: 1 amine or outer side, 2 acyl side, 3 side chain; linkers in the order of their positions; H or OH if unused. Non-standard residues stand in square brackets, D forms with d. Groups on a side chain read outwards from the residue. No end group written: not given here. *: point of attachment. C20 diacid = O=C(O)CCCCCCCCCCCCCCCCCCC(=O)*; γGlu = O=C(O)[C@H](CCC(=O)[*:2])N[*:1]; αMeL = CC(C)C[C@](C)(N)C(=O)O; αMeK = C[C@](N)(CCCCN)C(=O)O; AEEA = NCCOCCOCC(=O)O; Aib = CC(C)(N)C(=O)O

T2 sequence (P47871 26-477): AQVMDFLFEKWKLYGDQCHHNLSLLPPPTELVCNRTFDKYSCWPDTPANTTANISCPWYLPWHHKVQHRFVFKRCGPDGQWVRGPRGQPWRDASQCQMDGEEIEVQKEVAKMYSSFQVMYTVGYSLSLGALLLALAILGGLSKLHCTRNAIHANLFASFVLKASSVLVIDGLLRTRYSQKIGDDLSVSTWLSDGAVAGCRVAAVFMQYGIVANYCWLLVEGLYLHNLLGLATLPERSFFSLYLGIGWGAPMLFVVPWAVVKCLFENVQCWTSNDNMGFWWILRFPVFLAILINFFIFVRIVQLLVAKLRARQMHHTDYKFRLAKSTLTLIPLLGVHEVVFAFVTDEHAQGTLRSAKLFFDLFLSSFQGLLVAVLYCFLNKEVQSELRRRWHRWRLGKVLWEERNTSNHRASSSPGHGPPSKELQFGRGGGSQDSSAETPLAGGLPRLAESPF

One assay concerns the target T2, human glucagon receptor (human, UniProt P47871 26-477). Kind of assay: cell-based or functional assay.
Regarding B1, the “Activity against human GCGR (EC50 nM)” value stood at 0.087 nM.

As for B2, the “Activity against human GCGR (EC50 nM)” value worked out at 0.121 nM.

Consider H[Aib]HGTFTSDYS[αMeK]YLEK([AEEA-AEEA-γGlu-C20 diacid])KAAQEFVEWLIEGGPSSGAPPPS-NH2 [Compound No. 0115], for which the “Activity against human GCGR (EC50 nM)” value was 0.425 nM.

Regarding B3, the “Activity against human GCGR (EC50 nM)” value was found to be 0.087 nM.

The next assay addresses T3, human glucagon-like peptide-1 receptor (human, UniProt P43220 24-463). Kind of assay: cell-based or functional assay.
On to B1, for which the “Activity against human GLP-1R (EC50 nM)” value is 0.031 nM.

For B2, the “Activity against human GLP-1R (EC50 nM)” value was 0.026 nM.

As to H[Aib]HGTFTSDYS[αMeK]YLEK([AEEA-AEEA-γGlu-C20 diacid])KAAQEFVEWLIEGGPSSGAPPPS-NH2 [Compound No. 0115], the “Activity against human GLP-1R (EC50 nM)” value is 0.023 nM.

For B3, the “Activity against human GLP-1R (EC50 nM)” value worked out at 0.023 nM.

A further assay addresses T1, human glucose-dependent insulinotropic …. The experiment in a line: cell-based or functional assay.
With B1, the “Activity against human GIPR (EC50 nM)” value was found to be 0.005 nM.

As for B2, the “Activity against human GIPR (EC50 nM)” value came out at 0.002 nM.

As for H[Aib]HGTFTSDYS[αMeK]YLEK([AEEA-AEEA-γGlu-C20 diacid])KAAQEFVEWLIEGGPSSGAPPPS-NH2 [Compound No. 0115], the “Activity against human GIPR (EC50 nM)” value was 0.051 nM.

Consider B3, for which the “Activity against human GIPR (EC50 nM)” value worked out at 0.005 nM.

The next assay addresses T2, human glucagon receptor. The experiment in a line: cell-based or functional assay. The source holds these as a separate data set.
With B4, the “Activity against human GCGR (EC50 nM)” value was 1.62 nM.

On to B5, for which the “Activity against human GCGR (EC50 nM)” value turned out to be 3.65 nM.

The target in another assay is T3, human glucagon-like peptide-1 receptor. The experiment in a line: cell-based or functional assay. This is another data set of the same source.
For B4, the “Activity against human GLP-1R (EC50 nM)” value is 0.033 nM.

On to B5, for which the “Activity against human GLP-1R (EC50 nM)” value turned out to be 0.036 nM.

The next assay concerns the target T1, human glucose-dependent insulinotropic …. Kind of assay: cell-based or functional assay. This is another data set of the same source.
In the case of B4, the “Activity against human GIPR (EC50 nM)” value was determined as 0.031 nM.

On to B5, for which the “Activity against human GIPR (EC50 nM)” value worked out at 0.014 nM.
